Measurements: patent US20060121042A1 (AstraZeneca / MedImmune, published 2006)

T1: mEphA7 (mouse, UniProt Q61772)
T1 construct: part of an Fc fusion; also called rmuEphA7-Fc
T1 sequence (receptor-Fc fusion, looked up): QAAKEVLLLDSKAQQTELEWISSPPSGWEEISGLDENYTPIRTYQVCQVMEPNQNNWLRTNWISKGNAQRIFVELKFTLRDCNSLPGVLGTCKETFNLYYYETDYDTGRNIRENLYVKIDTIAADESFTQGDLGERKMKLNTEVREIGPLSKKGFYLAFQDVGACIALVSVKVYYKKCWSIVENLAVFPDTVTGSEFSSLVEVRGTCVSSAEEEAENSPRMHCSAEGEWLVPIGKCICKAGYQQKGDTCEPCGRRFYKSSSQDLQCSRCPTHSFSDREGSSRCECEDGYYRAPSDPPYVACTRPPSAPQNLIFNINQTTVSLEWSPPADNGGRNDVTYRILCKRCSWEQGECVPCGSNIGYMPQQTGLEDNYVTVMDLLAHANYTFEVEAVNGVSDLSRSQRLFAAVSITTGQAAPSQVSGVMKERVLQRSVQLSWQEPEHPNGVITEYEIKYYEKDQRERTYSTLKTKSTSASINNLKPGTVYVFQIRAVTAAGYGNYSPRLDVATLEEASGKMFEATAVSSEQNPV

T2: mEphA3 (mouse, UniProt P29319)
T2 construct: part of an Fc fusion; also called rmuEphA3-Fc
T2 sequence (receptor-Fc fusion, looked up): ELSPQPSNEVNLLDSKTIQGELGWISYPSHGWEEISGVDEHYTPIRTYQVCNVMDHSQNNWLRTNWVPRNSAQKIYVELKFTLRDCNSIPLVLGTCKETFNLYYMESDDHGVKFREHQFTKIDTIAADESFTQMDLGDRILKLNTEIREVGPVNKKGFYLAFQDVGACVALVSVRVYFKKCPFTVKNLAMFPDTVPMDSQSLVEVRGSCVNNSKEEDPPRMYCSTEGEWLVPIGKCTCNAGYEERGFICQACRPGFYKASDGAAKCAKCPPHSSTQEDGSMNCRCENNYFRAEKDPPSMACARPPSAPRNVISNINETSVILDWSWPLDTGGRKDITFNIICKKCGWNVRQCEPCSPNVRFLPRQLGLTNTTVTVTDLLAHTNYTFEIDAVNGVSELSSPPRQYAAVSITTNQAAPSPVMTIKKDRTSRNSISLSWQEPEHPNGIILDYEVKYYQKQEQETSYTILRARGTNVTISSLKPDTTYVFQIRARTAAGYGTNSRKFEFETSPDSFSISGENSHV

T3: r murine EphA3 (mouse, UniProt P29319)
T3 construct: recombinant Fc fusion (R&D Systems); also called rmuEphA3-Fc; mEphA3
T3 sequence (receptor-Fc fusion, looked up): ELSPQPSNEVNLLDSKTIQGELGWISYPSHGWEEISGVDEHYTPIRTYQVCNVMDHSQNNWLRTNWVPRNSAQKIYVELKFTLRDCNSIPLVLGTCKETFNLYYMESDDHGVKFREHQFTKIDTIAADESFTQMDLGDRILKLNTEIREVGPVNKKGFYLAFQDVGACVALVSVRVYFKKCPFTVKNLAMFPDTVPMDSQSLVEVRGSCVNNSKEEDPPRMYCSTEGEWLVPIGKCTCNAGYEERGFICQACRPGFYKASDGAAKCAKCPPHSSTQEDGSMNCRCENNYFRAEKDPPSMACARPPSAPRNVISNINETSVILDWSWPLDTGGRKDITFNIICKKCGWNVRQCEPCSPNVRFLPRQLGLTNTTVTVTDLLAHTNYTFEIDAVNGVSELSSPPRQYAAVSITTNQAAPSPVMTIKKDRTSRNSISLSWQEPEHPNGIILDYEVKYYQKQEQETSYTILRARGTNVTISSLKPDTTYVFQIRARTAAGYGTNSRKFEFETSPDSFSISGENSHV

T4: r murine EphA7 (mouse, UniProt Q61772)
T4 construct: recombinant Fc fusion (R&D Systems); also called rmuEphA7-Fc; mEphA7
T4 sequence (receptor-Fc fusion, looked up): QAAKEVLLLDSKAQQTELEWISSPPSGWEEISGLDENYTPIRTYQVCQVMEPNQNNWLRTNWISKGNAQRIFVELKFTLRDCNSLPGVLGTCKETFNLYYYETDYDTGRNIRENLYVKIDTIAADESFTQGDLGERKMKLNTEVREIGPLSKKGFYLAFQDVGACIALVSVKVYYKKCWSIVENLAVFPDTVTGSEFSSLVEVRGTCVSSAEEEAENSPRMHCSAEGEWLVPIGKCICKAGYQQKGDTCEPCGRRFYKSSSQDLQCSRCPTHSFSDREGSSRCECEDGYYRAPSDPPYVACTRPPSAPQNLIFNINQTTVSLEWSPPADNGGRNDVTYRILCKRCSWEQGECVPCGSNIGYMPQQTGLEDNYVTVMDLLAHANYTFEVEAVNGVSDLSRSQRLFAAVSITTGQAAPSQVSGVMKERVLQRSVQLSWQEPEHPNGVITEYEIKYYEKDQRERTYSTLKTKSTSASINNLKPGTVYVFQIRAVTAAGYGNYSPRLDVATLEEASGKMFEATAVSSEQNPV


Tests used:
[1] = biological target: T5, mEphA4 (mouse, UniProt Q03137); assay: ELISA, receptor coated on the plate, purified IgG, anti-human kappa-HRP
T5 construct: part of an Fc fusion; also called rmuEphA4-Fc
Method: (§1) Secondary screening of IgG constructs of affinity optimized combinatorial variants with additional EphA receptors: With purified IgG constructs of the nine combinatorial variants, additional secondary screening assays were performed using the Activity ELISA (see above) and recombinant EphA receptor proteins. More precisely, Nunc Maxisorp plates were coated with the following rEphA proteins: rhuEphAl-Fc; 0.5 μg/well, rmuEphA2-Fc; 0.5 μg/well, rmuEphA3-Fc: 0.1 μg/well, rmuEphA4-Fc; 0.1 μg/well, rratEphA5-Fc; 0.5 μg/well, rmuEphA6-Fc; 0.5 μg/well, rmuEphA7-Fc; 0.1 μg/well, rEphA8; 0.2 μg/well (all R&D Systems), rhuEphA2-Fc; 0.5 μg/well, and rhuEphA4-His; 0.1 μg/well (both produced at MedImmune, Inc.). Plates were blocked with 3% BSA+0.1% Tween20 for 2 h. […] Incubation with a goat anti-human kappa horseradish peroxydase (HRP) conjugate then followed. HRP activity was detected with TMB substrate and the reaction quenched with 0.2 M H₂SO₄. Plates were read at 450 nm. Data was analyzed by normalizing Fab concentrations to the corresponding activity data (see FIGS. 12A-12J and 14).

[2] = biological target: T1, mEphA7; assay: as above
Method: as §1

[3] = biological target: T2, mEphA3; assay: as above
Method: as §1

[4] = biological target: T6, Human EphA4-His fusion protein (human, UniProt P54764 20-547); assay: BIAcore, IgG immobilized on the sensor chip, EphA4-his as analyte
T6 construct: also called rhuEphA4-His; not shown: Histidine tag
Method: (§2) FIG. 15A-15B. […] Binding affinities were measured using the BIAcore assay. […] Variant kinetic measurements for human EphA4 and were obtained using BIAcore with immobilized variant antibodies and human EphA4-Fc and EphA4-His as analytes.

[5] = biological target: T3, r murine EphA3; assay: activity ELISA, IgG on coated antigen
Method: as §1

[6] = biological target: T7, r murine EphA4 (mouse, UniProt Q03137); assay: activity ELISA, IgG on coated antigen
T7 construct: recombinant Fc fusion (R&D Systems); also called rmuEphA4-Fc; mEphA4
Method: as §1

[7] = biological target: T4, r murine EphA7; assay: activity ELISA, IgG on coated antigen
Method: as §1

[8] = biological target: T8, Human EphA4-Fc fusion protein (human, UniProt P54764 20-547); assay: BIAcore, IgG immobilized on the sensor chip, EphA4-Fc as analyte; koff and KD printed as ***, comment: off-rate below LOD
T8 construct: not shown: Fc portion of a human IgG1
Method: as §2

T6 sequence (P54764 20-547): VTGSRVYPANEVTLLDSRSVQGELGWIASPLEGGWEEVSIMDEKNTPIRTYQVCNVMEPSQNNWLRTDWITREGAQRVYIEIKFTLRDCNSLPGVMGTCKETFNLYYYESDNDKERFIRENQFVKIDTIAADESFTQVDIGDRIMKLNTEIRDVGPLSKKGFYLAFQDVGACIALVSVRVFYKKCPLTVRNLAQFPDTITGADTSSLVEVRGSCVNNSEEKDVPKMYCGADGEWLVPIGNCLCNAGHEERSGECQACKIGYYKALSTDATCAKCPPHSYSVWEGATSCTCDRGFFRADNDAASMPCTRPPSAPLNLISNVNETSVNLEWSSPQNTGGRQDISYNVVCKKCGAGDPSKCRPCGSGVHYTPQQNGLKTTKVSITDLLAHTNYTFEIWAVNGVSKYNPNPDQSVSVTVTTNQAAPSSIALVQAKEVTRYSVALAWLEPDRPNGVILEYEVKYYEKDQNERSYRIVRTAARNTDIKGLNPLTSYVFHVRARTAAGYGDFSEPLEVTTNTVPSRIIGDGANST
T7 sequence (Q03137 20-547 limits assumed): as the sequence (P54764 20-547) above, with P59A, N121S, V124G, R250Q, S251N, T270S, K378R, N406S counted along it
T5 sequence (Q03137 20-547 limits assumed): as the sequence (P54764 20-547) above, with P59A, N121S, V124G, R250Q, S251N, T270S, K378R, N406S counted along it
T8 sequence (P54764 20-547): as the sequence (P54764 20-547) above

Row | binding result [1] | binding result [2] | binding result [3] | Kd [4] [nM] | koff [4] [s⁻¹] | kon [4] [M⁻¹ s⁻¹] | binding result [5] | binding result [6] | binding result [7] | kon [8] [M⁻¹ s⁻¹] | Binder
1 | binds | binds | binds | 1.2 | 0.000353 | 295000 | binds | binds | binds | 793000 | 6B7 IgG1 (affinity optimized combinatorial variant of mAb GEA44 in human IgG1 format) (antibody, V domains shown) VH: QVQLLQSGAEVKKPGASVKVPCKASGYTFTSRAMSWVRQAPGQGLEWMGWINTNTGNPTYAQGFTGRFVFSLDTSVSTAYLQISSLKAEDTAVYYCARVRFTVYGDGMDVWGQGTLVTVSS VL: EIVLTQSPATLSVSPGERATLSCRASQSVSSNPAWYQQKPGQAPRLLIYGASTRATGIPDRFSASGSGTDFTLTISRVEPEDFAVYYCQQYGPSWTFGQGTKVEIK
2 | binds | binds |  |  |  |  |  | binds | binds | 464000 | 3C6 IgG1 (affinity optimized combinatorial variant of mAb GEA44 in human IgG1 format) (antibody, V domains shown) VH: QVQLLQSGAEVKKPGASVKVPCKASGYTFTSRAMSWVRQAPGQGLEWMGWINTNTGNPTYAQGFTGRFVFSLDTSVSTAYLQISSLKAEDTAVYYCARVRLTVYGDGMDVWGQGTLVTVSS VL: EIVLTQSPATLSVSPGERATLSCRASQSVSSNPPWYQQKPGQAPRLLIYGASTRATGIPDRFSASGSGTDFTLTISRVEPEDFAVYYCQQYGSSWTFGQGTKVEIK
